Test results taken from the Human Domainome abundance scans (Beltran et al. 2025).
± gives the uncertainty stated by the source.

B1: Homeobox expressed in ES cells 1, residues 110 to 165; numbered along this chain, Q9UBX0 (parent)
chain: RPRTAFTQNQIEVLENVFRVNCYPGIDIREDLAQKLNLEEDRIQIWFQNRRAKLKR

Variants of: B1
Assay: abundance fitness (aPCA) (normalised: wild type 0, dead -1); higher = more abundant; growth selection in yeast, the domain comes from the species named
Conditions: Homo sapiens

| Variant | abundance fitness |
| --- | --- |
| E15C | -0.567 ± 0.26 |
| E15M | -0.196 ± 0.12 |
| E15V | -0.81 ± 0.16 |
| E15P | -0.499 ± 0.34 |
| E12T | -0.009 ± 0.15 |
| E12F | 0.203 ± 0.18 |
| E12L | -0.236 ± 0.17 |
| E12Q | 0.154 ± 0.21 |
| E12K | 0.487 ± 0.17 |
| E12I | -0.612 ± 0.35 |
| E12N | -0.148 ± 0.31 |
| E12Y | -0.264 ± 0.37 |
| E12G | -0.525 ± 0.18 |
| E12V | -0.137 ± 0.095 |
| E12D | 0.28 ± 0.14 |
| E12C | -0.341 ± 0.25 |
| E12A | -0.257 ± 0.16 |
| E12S | 0.016 ± 0.14 |
| E12R | -0.346 ± 0.12 |
| E12P | -1.07 ± 0.36 |
| E12W | -0.704 ± 0.31 |
| N16P | -1 ± 0.25 |
| N16M | -0.215 ± 0.19 |
| N16L | -0.561 ± 0.12 |

| Variant | abundance fitness |
| --- | --- |
| N16E | -0.114 ± 0.073 |
| N16Q | -0.073 ± 0.15 |
| N16K | -0.034 ± 0.19 |
| N16W | -0.755 ± 0.27 |
| N16C | -0.365 ± 0.15 |
| N16T | -0.125 ± 0.16 |
| N16F | -0.962 ± 0.39 |
| N16D | -0.073 ± 0.12 |
| N16V | -0.701 ± 0.16 |
| N16R | -0.417 ± 0.19 |
| N16Y | -0.56 ± 0.3 |
| N16S | -0.02 ± 0.13 |
| F18M | -1.06 ± 0.36 |
| F18C | -0.625 ± 0.47 |
| F18S | -0.819 ± 0.14 |
| F18G | -0.812 ± 0.14 |
| F18R | -0.71 ± 0.089 |
| F18D | -0.701 ± 0.28 |
| F18L | -0.459 ± 0.2 |
| F18T | -0.82 ± 0.24 |
| F18I | -0.328 ± 0.15 |
| F18Q | -0.891 ± 0.38 |
| F18K | -0.845 ± 0.13 |
| F18Y | -0.083 ± 0.14 |

| Variant | abundance fitness |
| --- | --- |
| N21F | -0.868 ± 0.41 |
| N21R | -0.948 ± 0.19 |
| N21Y | -0.592 ± 0.22 |
| N21V | -0.578 ± 0.12 |
| N21L | -0.807 ± 0.36 |
| N21G | -0.262 ± 0.21 |
| N21W | -0.608 ± 0.46 |
| N21Q | -0.158 ± 0.31 |
| N21I | -0.522 ± 0.38 |
| N21D | -0.412 ± 0.31 |
| N21M | -0.058 ± 0.18 |
| N21A | -1.03 ± 0.32 |
| N21C | -0.69 ± 0.18 |
| N21S | -0.454 ± 0.14 |
| C22P | 0.079 ± 0.13 |
| C22Y | 0.009 ± 0.1 |
| C22V | -0.392 ± 0.15 |
| C22I | 0.076 ± 0.11 |
| C22K | -0.328 ± 0.25 |
| C22F | -0.467 ± 0.1 |
| C22W | -0.066 ± 0.21 |
| C22T | -0.013 ± 0.17 |
| C22D | -0.021 ± 0.21 |
| C22M | 0.425 ± 0.15 |

| Variant | abundance fitness |
| --- | --- |
| C22S | 0.187 ± 0.11 |
| C22E | 0.227 ± 0.18 |
| C22Q | 0.156 ± 0.096 |
| C22A | -0.061 ± 0.13 |
| C22G | -0.182 ± 0.12 |
| C22R | 0.054 ± 0.064 |
| C22L | -0.134 ± 0.16 |
| R19W | -0.64 ± 0.18 |
| R19I | -0.327 ± 0.26 |
| R19V | -0.142 ± 0.12 |
| R19F | -0.467 ± 0.12 |
| R19T | -0.01 ± 0.12 |
| R19Y | -0.614 ± 0.38 |
| R19K | -0.105 ± 0.18 |
| R19C | -0.354 ± 0.1 |
| R19H | -0.46 ± 0.27 |
| R19Q | -0.187 ± 0.22 |
| R19E | -0.291 ± 0.089 |
| R19S | -0.334 ± 0.11 |
| R19G | -0.452 ± 0.071 |
| R19M | -0.529 ± 0.22 |
| F6Q | -0.678 ± 0.36 |
| F6I | -0.075 ± 0.2 |
| F6K | -0.703 ± 0.13 |

| Variant | abundance fitness |
| --- | --- |
| F6V | -0.155 ± 0.37 |
| F6R | -0.688 ± 0.14 |
| F6M | 0.123 ± 0.14 |
| F6S | -0.791 ± 0.14 |
| F6C | -0.673 ± 0.22 |
| F6T | -0.859 ± 0.33 |
| F6W | -0.365 ± 0.12 |
| F6G | -0.797 ± 0.11 |
| F6D | -0.599 ± 0.32 |
| F6A | -0.865 ± 0.25 |
| F6N | -0.454 ± 0.46 |
| F6Y | -0.065 ± 0.21 |
| V17I | -0.091 ± 0.19 |
| V17L | -0.308 ± 0.092 |
| V17S | -0.335 ± 0.079 |
| V17Q | -0.359 ± 0.31 |
| V17K | -0.552 ± 0.35 |
| V17M | -0.197 ± 0.2 |
| V17R | -0.84 ± 0.18 |
| V17F | -0.562 ± 0.33 |
| V17H | -0.427 ± 0.2 |
| V17W | -0.923 ± 0.27 |
| V17E | -0.372 ± 0.23 |
| V17P | -0.743 ± 0.16 |

| Variant | abundance fitness |
| --- | --- |
| V17Y | -0.293 ± 0.21 |
| V17A | -0.06 ± 0.18 |
| V17T | -0.151 ± 0.091 |
| Y23M | -0.44 ± 0.27 |
| Y23Q | -0.251 ± 0.31 |
| Y23L | -0.338 ± 0.13 |
| Y23R | -0.381 ± 0.12 |
| Y23F | -0.411 ± 0.3 |
| Y23D | -0.23 ± 0.25 |
| Y23A | 0.05 ± 0.074 |
| Y23N | 0.114 ± 0.15 |
| Y23K | -0.262 ± 0.11 |
| Y23C | 0.05 ± 0.076 |
| R1V | 0.134 ± 0.27 |
| R1C | 0.12 ± 0.33 |
| R1G | -0.505 ± 0.38 |
| R1T | -0.455 ± 0.49 |
| R1A | 0.352 ± 0.4 |
| R1Y | 0.406 ± 0.46 |
| R1S | -0.482 ± 0.43 |
| L14M | -0.267 ± 0.2 |
| L14T | -0.463 ± 0.47 |
| L14I | -0.298 ± 0.47 |
| L14N | -0.506 ± 0.49 |

| Variant | abundance fitness |
| --- | --- |
| L14E | -0.87 ± 0.45 |
| L14R | -0.77 ± 0.18 |
| L14W | -0.625 ± 0.37 |
| L14K | -0.519 ± 0.24 |
| L14G | -0.88 ± 0.11 |
| L14A | -1.02 ± 0.26 |
| V20H | -0.021 ± 0.18 |
| V20D | 0.136 ± 0.084 |
| V20L | -0.186 ± 0.094 |
| V20A | -0.052 ± 0.17 |
| V20F | 0.333 ± 0.13 |
| V20C | -0.218 ± 0.14 |
| V20N | 0.208 ± 0.081 |
| V20Y | -0.667 ± 0.41 |
| V20W | -0.436 ± 0.39 |
| V20K | 0.106 ± 0.24 |
| V20G | -0.157 ± 0.089 |
| V20S | 0.072 ± 0.062 |
| V20R | -0.118 ± 0.11 |
| V20I | 0.077 ± 0.096 |
| V20M | -0.091 ± 0.29 |
| V20T | -0.03 ± 0.072 |
| V20E | -0.1 ± 0.17 |
